Tested on: Escherichia coli TOP10
Assay: shrunken log2 fold change of peptide-encoding DNA abundance (4.5 h post-induction vs induction); higher = less antimicrobial activity (less host growth inhibition)
Settings: time post-induction: 4.5 h; library: site-saturation at positions 5, 18, 19, 20
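Also: peptides expressed intracellularly from a pBAD plasmid library in pooled LB shake-flask culture, induced with 0.3% L-arabinose, DNA abundance read by NGS, three biological replicates, DESeq2 with apeglm shrinkage.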

Row | Sequence | shrunken log2 fold change
1 | RRIRYRPPRLPRPRPRPKVTPRP | -0.114
2 | RRIRGRPPRLPRPRPRPFQPPRP | 0.0927
3 | RRIRQRPPRLPRPRPRPNGYPRP | -0.121
4 | RRIRKRPPRLPRPRPRPTIHPRP | -0.087
5 | RRIRVRPPRLPRPRPRPNGFPRP | -0.0486
6 | RRIRSRPPRLPRPRPRPHRTPRP | -0.0768
7 | RRIRFRPPRLPRPRPRPDRHPRP | -0.164
8 | RRIRRRPPRLPRPRPRPVGGPRP | 0.984
9 | RRIRYRPPRLPRPRPRPGWEPRP | -0.143
10 | RRIRVRPPRLPRPRPRPMMSPRP | 0.00438
11 | RRIRPRPPRLPRPRPRPLIWPRP | 0.0601
12 | RRIRWRPPRLPRPRPRPVMTPRP | 0.569
13 | RRIRQRPPRLPRPRPRPCRSPRP | 0.00709
14 | RRIRHRPPRLPRPRPRPSFEPRP | -0.358
15 | RRIRGRPPRLPRPRPRPYKIPRP | -0.618
16 | RRIRPRPPRLPRPRPRPLYVPRP | -0.433
17 | RRIRLRPPRLPRPRPRPNYHPRP | -0.536
18 | RRIRSRPPRLPRPRPRPRDAPRP | 0.328
19 | RRIRSRPPRLPRPRPRPWIIPRP | -0.159
20 | RRIRTRPPRLPRPRPRPFYWPRP | -0.348
21 | RRIRWRPPRLPRPRPRPMCKPRP | -0.0527
22 | RRIRGRPPRLPRPRPRPWQFPRP | 0.0819
23 | RRIRGRPPRLPRPRPRPVDCPRP | 0.496
24 | RRIRFRPPRLPRPRPRPNSCPRP | -0.895
25 | RRIRHRPPRLPRPRPRPMHWPRP | -0.134

Row | Sequence | shrunken log2 fold change
26 | RRIRMRPPRLPRPRPRPSDQPRP | -0.198
27 | RRIRIRPPRLPRPRPRPFIMPRP | -0.187
28 | RRIRYRPPRLPRPRPRPKLWPRP | 0.64
29 | RRIRGRPPRLPRPRPRPWAHPRP | 0.0122
30 | RRIRVRPPRLPRPRPRPRPPPRP | 0.843
31 | RRIRERPPRLPRPRPRPRRMPRP | 0.119
32 | RRIRLRPPRLPRPRPRPPKSPRP | 0.275
33 | RRIRTRPPRLPRPRPRPRSCPRP | 0.423
34 | RRIRERPPRLPRPRPRPPLVPRP | -0.0197
35 | RRIRSRPPRLPRPRPRPAPRPRP | 0.845
36 | RRIRQRPPRLPRPRPRPDYKPRP | -0.0788
37 | RRIRGRPPRLPRPRPRPDSGPRP | 0.128
38 | RRIRYRPPRLPRPRPRPDEAPRP | 0.033
39 | RRIRYRPPRLPRPRPRPQKVPRP | -0.209
40 | RRIRCRPPRLPRPRPRPCISPRP | -0.582
41 | RRIRNRPPRLPRPRPRPVNWPRP | -0.0184
42 | RRIRERPPRLPRPRPRPWLFPRP | -0.0723
43 | RRIRFRPPRLPRPRPRPNCCPRP | 0.0101
44 | RRIRCRPPRLPRPRPRPWNPPRP | 0.228
45 | RRIRIRPPRLPRPRPRPFLQPRP | -0.248
46 | RRIRVRPPRLPRPRPRPHGHPRP | -0.0491
47 | RRIRFRPPRLPRPRPRPYCNPRP | -1.06
48 | RRIRHRPPRLPRPRPRPISRPRP | -0.0532
49 | RRIRGRPPRLPRPRPRPKQDPRP | 0.881
50 | RRIRMRPPRLPRPRPRPFWDPRP | 0.359

From the supplement of paper PMC9112550, “Optimization of the antimicrobial peptide Bac7 by deep mutational scanning” (BMC Biology, 2022)
